Laboratory results: PMC10837206, “R-Spondin 2 governs Xenopus left-right body axis formation by establishing an FGF signaling gradient” (Nature Communications, 2024)

B1: KC peptide (10-mer derived from the human RSPO2 TSP1 domain) (peptide)
peptide: KKPVKDTILC
notes: stretch of the TSP1 domain of human R-Spondin 2 (RSPO2)
B2: human RSPO2-AP (alkaline-phosphatase-tagged R-Spondin 2 fusion protein) (ligand, UniProt Q6UXX9 22-243, looked up)
chain: QGNRWRRSKRASYVSNPICKGCLSCSKDNGCSRCQQKLFFFLRREGMRQYGECLHSCPSGYYGHRAPDMNRCARCRIENCDSCFSKDFCTKCKVGFYLHRGRCFDECPDGFAPLEETMECVEGCEVGHWSEWGTCSRNNRTCGFKWGLETRTRQIVKKPVKDTILCPTIAESRRCKMTMRHCPGGKRTPKAKEKRNKKKKRKLIERAQEQHSVFLATDRANQ
notes: R-Spondin 2 (RSPO2), human; also called R2; source: HEK293T, transfected, conditioned medium
B3: TK peptide (10-mer derived from the human RSPO2 TSP1 domain) (peptide)
peptide: TRQIVKKPVK
notes: as for B1

How the values were obtained:
[1] = biological target: T1, recombinant human FGFR4 Fc Chimera (human, UniProt P22455 22-369); assay: in vitro competitive binding assay (solid phase, bound AP activity); as a8; the peptide (100 uM) against coated FGFR4 Fc Chimera; settings: both partners purified
T1 construct: Fibroblast Growth Factor receptor 4 (FGFR4), human, extracellular domain; also called FGFR4^ECD; extracellular domain (ECD) of FGFR4; source: bought: R&D systems 685-FR and BioLegend 752502
T1 sequence (looked up): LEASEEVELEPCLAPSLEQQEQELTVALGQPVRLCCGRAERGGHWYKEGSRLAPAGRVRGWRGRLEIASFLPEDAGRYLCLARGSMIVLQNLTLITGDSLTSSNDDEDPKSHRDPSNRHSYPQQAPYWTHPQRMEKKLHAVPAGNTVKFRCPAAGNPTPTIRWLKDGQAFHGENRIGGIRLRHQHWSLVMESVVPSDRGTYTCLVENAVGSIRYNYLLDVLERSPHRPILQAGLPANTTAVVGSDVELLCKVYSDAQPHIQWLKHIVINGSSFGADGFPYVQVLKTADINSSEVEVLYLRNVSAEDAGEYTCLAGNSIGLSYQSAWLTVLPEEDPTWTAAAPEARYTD

[2] = biological target: T1, recombinant human FGFR4 Fc Chimera; assay: in vitro binding assay (solid phase, bound AP activity); titration of RSPO2-AP on coated FGFR4 Fc Chimera (R&D systems 685-FR); Scatchard analysis; settings: one partner purified

| Binder | binding result [1] | Kd [2] [nM] |
| --- | --- | --- |
| B1 | binds |  |
| B2 |  | 1.5 |
| B3 | binds |  |
